Laboratory results from patent US20180119119.

Columns and labels:
Assay in all cases: cell_activity
[1] = system: ExoS54-FLAG-TALEN2 (gfp/Venus right TALEN) (Artificial); settings: paired with TALEN1; T3SS protein injection into EB5 mESC, MOI 100, 3 h; about 30% at MOI 400; indels confirmed by sequencing
[2] = system: ExoS54-FLAG-HPRT1-T2 (HPRT1 right TALEN) (Artificial); settings: paired with HPRT1-T1; human iPSC, MOI 100, 3 h, after 6TG selection, no template; overall mutation efficiency about 1%
[3] = system: ExoS54-FLAG-HPRT1-T1 (HPRT1 left TALEN) (Artificial); settings: paired with HPRT1-T2; human iPSC, MOI 100, 3 h, after 6TG selection, no template; overall mutation efficiency about 1%
[4] = system: ExoS54-FLAG-TALEN1 (gfp/Venus left TALEN) (Artificial); settings: paired with TALEN2; T3SS protein injection into EB5 mESC, MOI 100, 3 h; about 30% at MOI 400; indels confirmed by sequencing

## CTGGACGGCGACGTAAA (double strand) [gfp TALEN right half-site (top strand)]
[1]
  activity (% GFP-negative cells): 20

## GATGGGAGGCCATCACATTGT (double strand) [HPRT1 exon 2 TALEN right half-site (top strand)]
[2]
  activity (% DNA lost XhoI site): 20

## GTAGGACTGAACGTCTTGCTC (double strand) [HPRT1 exon 2 TALEN left half-site]
[3]
  activity (% DNA lost XhoI site): 20

## TTCACCGGGGTGGTGCC (double strand) [gfp TALEN left half-site]
[4]
  activity (% GFP-negative cells): 20
